± gives the uncertainty stated by the source.

A short description of this data set: self-splicing fitness, log relative to wild type (ln ratio); higher = more splicing; Tetrahymena group I intron in knt gene, E. coli kanamycin selection, DiMSum; sequences stand for … in CUCUCU…GGAGGGAAAAGUUAUCAGGCAUGCACCUGGUAGCUAGUCUUUAAACCAAUAGAUUGCAUCGGUUUAAAAGGCAAGACCGUCAAAUUGCGGGAAAGGGGUCAACAGCCGUUCAGUACCAAGUCUCAGGGGAAACUUUGAGAUGGCCUUGCAAAGGGUAUGGUAAUAAGCUGACGGACAUGGUCCUAACCACGCAGCCAAGUCCUAAGUCAACAGAUCUUCUGUUGAUAUGGAUGCAGUUCACAGACUAAAUGUCGGUCGGGGAAGAUGUAUUCUUCUCAUAAGAUAUAGUCGGACCUCUCCUUAAUGGGAGCUAGCGGAUGAAGUGAUGCAACACUGGAGCCGCUGGGAACUAAUUUGUAUGCGAAAGUAUAUUGAUUAGUUUUGGAGUACUCGUGGUCG
In short, it runs like this:
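A randomised library covering all eight P1ex-region intron nucleotides was built with the intron in the knt kanamycin-resistance gene on pET-22b(+) and held in E. coli BL21(DE3). Cells were grown overnight at 37°C or 30°C on LB agar, with or without 25 μg/mL kanamycin, plus 100 μg/mL carbenicillin, 50 μM IPTG and 0.2% rhamnose, and pooled colonies were amplicon-sequenced on an Illumina HiSeq 2500. DiMSum fitness is the error-weighted combination of wild-type-normalised replicate fold changes, kanamycin versus none.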

Consider GCCAAGCAAUAUUACGCGUU, for which the “self-splicing fitness (ln)” value (30 °C) was -0.424 ± 0.059 and the “self-splicing fitness (ln)” value (37 °C) came to 0.358 ± 0.079. Turning to GAAGAGCAAUAUUACGCCUG, the “self-splicing fitness (ln)” value (30 °C) is -0.984 ± 0.19 and the “self-splicing fitness (ln)” value (37 °C) was -0.756 ± 0.35.

Turning to ACUAAGCAAUAUUACGAAUG, the “self-splicing fitness (ln)” value reads like this: (30 °C) -2.31 ± 0.13; (37 °C) -1.2 ± 0.14. The like results for GUUCAGCAAUAUUACGGGGA were, in that order, -4.6 ± 0.46 and -2.56 ± 0.22. On the same counts, the results for GCGUAGCAAUAUUACGACGG are -3.73 ± 0.48 and -2.79 ± 0.43. The like results for GGUAAGCAAUAUUACGACCG were, in that order, -1.05 ± 0.16 and 0.0485 ± 0.22. Consider GCAGAGCAAUAUUACGGCAG, for which the “self-splicing fitness (ln)” value was -2.87 ± 0.23 (30 °C) and -1.18 ± 0.25 (37 °C).

Regarding AAGAAGCAAUAUUACGAGCA, the “self-splicing fitness (ln)” value (30 °C) was -1.21 ± 0.12 and the “self-splicing fitness (ln)” value (37 °C) is -0.225 ± 0.1. For the sequence AUCUAGCAAUAUUACGACUU, the “self-splicing fitness (ln)” value (30 °C) was -0.1 ± 0.074 and the “self-splicing fitness (ln)” value (37 °C) was 0.24 ± 0.092. The like results for ACUUAGCAAUAUUACGUAGU were, in that order, -2.87 ± 0.11 and -2.73 ± 0.19. In the case of GGUCAGCAAUAUUACGGGGU, the “self-splicing fitness (ln)” value is, setting by setting: (30 °C) -3.37 ± 0.12; (37 °C) -0.793 ± 0.086.

In the case of GGCUAGCAAUAUUACGUACA, the “self-splicing fitness (ln)” value reads like this: (30 °C) -1.07 ± 0.12; (37 °C) -0.185 ± 0.11. For the sequence UCCGAGCAAUAUUACGGAUC, the “self-splicing fitness (ln)” value (37 °C) was -2.41 ± 0.39. For AUUGAGCAAUAUUACGUAAC, the “self-splicing fitness (ln)” value is -1.3 ± 0.3 (30 °C) and -1.53 ± 0.31 (37 °C). The like results for GCAGAGCAAUAUUACGCUGC were, in that order, -3.42 ± 0.48 and -1.76 ± 0.33.

For the sequence AUCGAGCAAUAUUACGAAAG, the “self-splicing fitness (ln)” value reads like this: (30 °C) -2.41 ± 0.13; (37 °C) -0.783 ± 0.14. For GCCCAGCAAUAUUACGCAAC, the “self-splicing fitness (ln)” value runs as follows: (30 °C) -2.19 ± 0.091; (37 °C) -0.000822 ± 0.095. For the sequence UCUCAGCAAUAUUACGGGGC, the “self-splicing fitness (ln)” value was -3.03 ± 0.23 (30 °C) and -3.85 ± 0.37 (37 °C).

Regarding UGAGAGCAAUAUUACGGUCU, the “self-splicing fitness (ln)” value (37 °C) is -2.37 ± 0.36.

For CACUAGCAAUAUUACGCAGA, the “self-splicing fitness (ln)” value reads like this: (30 °C) -2.54 ± 0.19; (37 °C) -2.16 ± 0.19. On the same counts, the results for ACCUAGCAAUAUUACGGCCG are -2.22 ± 0.43 and -1 ± 0.34. GAUCAGCAAUAUUACGUGUA: the “self-splicing fitness (ln)” value is, setting by setting: (30 °C) -1.36 ± 0.069; (37 °C) -0.723 ± 0.082. On the same counts, the results for CAGCAGCAAUAUUACGCGAG are -2.74 ± 0.15 and -1.7 ± 0.15. The like results for GACAAGCAAUAUUACGGAGA were, in that order, -2.59 ± 0.18 and -1.98 ± 0.14.

On to UCCAAGCAAUAUUACGAGAU, for which the “self-splicing fitness (ln)” value (30 °C) was -3.54 ± 0.18.

Consider UAAAAGCAAUAUUACGUCGU, for which the “self-splicing fitness (ln)” value (30 °C) is -3.29 ± 0.13 and the “self-splicing fitness (ln)” value (37 °C) was -2.17 ± 0.11. The like results for AGUGAGCAAUAUUACGACGA were, in that order, -2.44 ± 0.21 and -1.13 ± 0.24. Consider GAAUAGCAAUAUUACGACCC, for which, for the setting “30 °C”, the “self-splicing fitness (ln)” value was determined as 0.178 ± 0.39.

On to UAGUAGCAAUAUUACGACUC, for which the “self-splicing fitness (ln)” value was -0.329 ± 0.16 (30 °C) and 0.405 ± 0.19 (37 °C). The like results for ACCCAGCAAUAUUACGGCCC were, in that order, -0.0475 ± 0.11 and -0.539 ± 0.15.

Regarding AGAUAGCAAUAUUACGGUAU, the “self-splicing fitness (ln)” value is -1.43 ± 0.098 (30 °C) and -0.614 ± 0.1 (37 °C).

Consider UUCGAGCAAUAUUACGGCCC, for which the “self-splicing fitness (ln)” value (30 °C) is -1.75 ± 0.4. Regarding CUUGAGCAAUAUUACGAGGC, the “self-splicing fitness (ln)” value reads like this: (30 °C) -2.91 ± 0.26; (37 °C) -2.89 ± 0.27. Consider AAGGAGCAAUAUUACGGGCC, for which the “self-splicing fitness (ln)” value (30 °C) was -2.98 ± 0.37 and the “self-splicing fitness (ln)” value (37 °C) is -2.27 ± 0.45.

Consider GCUCAGCAAUAUUACGGAUU, for which the “self-splicing fitness (ln)” value is -0.53 ± 0.051 (30 °C) and 0.362 ± 0.075 (37 °C). With CGCCAGCAAUAUUACGAAGC, for the setting “37 °C”, the “self-splicing fitness (ln)” value was -1.71 ± 0.19.

As for GAGAAGCAAUAUUACGACCC, the “self-splicing fitness (ln)” value (30 °C) was -1.83 ± 0.38. Regarding CGUUAGCAAUAUUACGGUGC, the “self-splicing fitness (ln)” value reads like this: (30 °C) -3.11 ± 0.23; (37 °C) -2.59 ± 0.5. The like results for GUAAAGCAAUAUUACGUAGC were, in that order, -2.6 ± 0.11 and -0.771 ± 0.097. In the case of GAUGAGCAAUAUUACGGUGU, the “self-splicing fitness (ln)” value reads like this: (30 °C) -3.67 ± 0.22; (37 °C) -1.15 ± 0.13. For GUGGAGCAAUAUUACGAUUU, the “self-splicing fitness (ln)” value is -1.07 ± 0.27 (30 °C) and -1.29 ± 0.29 (37 °C). Consider GGUGAGCAAUAUUACGUCCU, for which the “self-splicing fitness (ln)” value runs as follows: (30 °C) -0.834 ± 0.23; (37 °C) -1.45 ± 0.22. In the case of GCGUAGCAAUAUUACGGUUU, the “self-splicing fitness (ln)” value reads like this: (30 °C) -1.03 ± 0.1; (37 °C) -0.436 ± 0.13. For the sequence GCUGAGCAAUAUUACGCGUG, the “self-splicing fitness (ln)” value (30 °C) was -1.54 ± 0.11 and the “self-splicing fitness (ln)” value (37 °C) was -0.878 ± 0.13. The like results for CUGUAGCAAUAUUACGACGU were, in that order, -1.13 ± 0.21 and -1.54 ± 0.26. With GUAUAGCAAUAUUACGAAAG, the “self-splicing fitness (ln)” value (30 °C) was -3.15 ± 0.43 and the “self-splicing fitness (ln)” value (37 °C) is -2.06 ± 0.35. For UUUAAGCAAUAUUACGUCGA, the “self-splicing fitness (ln)” value is, setting by setting: (30 °C) -0.771 ± 0.092; (37 °C) -0.225 ± 0.1. In the case of CGGCAGCAAUAUUACGCGUC, the “self-splicing fitness (ln)” value is -4.09 ± 0.25 (30 °C) and -2.4 ± 0.18 (37 °C). On to UAGUAGCAAUAUUACGCUAC, for which the “self-splicing fitness (ln)” value (30 °C) was -2.41 ± 0.42. As to GGGAAGCAAUAUUACGAUCU, the “self-splicing fitness (ln)” value is, setting by setting: (30 °C) -0.627 ± 0.27; (37 °C) -0.134 ± 0.24.

On to UAUAAGCAAUAUUACGUUCG, for which the “self-splicing fitness (ln)” value was -0.846 ± 0.12 (30 °C) and 0.0904 ± 0.17 (37 °C). The like results for AGGUAGCAAUAUUACGUUGG were, in that order, -3.813 ± 0.028 and -2.95 ± 0.041. The like results for ACUAAGCAAUAUUACGUGGU were, in that order, -3.41 ± 0.15 and -2.73 ± 0.21.

Take GACAAGCAAUAUUACGUCAA: the “self-splicing fitness (ln)” value (30 °C) was -2.87 ± 0.15 and the “self-splicing fitness (ln)” value (37 °C) was -1.95 ± 0.1. As for AUGGAGCAAUAUUACGCCGC, the “self-splicing fitness (ln)” value (30 °C) was -1.29 ± 0.44. UACUAGCAAUAUUACGAUGA: the “self-splicing fitness (ln)” value reads like this: (30 °C) -0.469 ± 0.13; (37 °C) -0.321 ± 0.11. For AGUUAGCAAUAUUACGCACU, the “self-splicing fitness (ln)” value is -1.6 ± 0.26 (30 °C) and -1.09 ± 0.23 (37 °C). On the same counts, the results for UAAGAGCAAUAUUACGAUGC are -3.73 ± 0.42 and -2.34 ± 0.33. Turning to UCGCAGCAAUAUUACGGUGU, the “self-splicing fitness (ln)” value (37 °C) was -2.63 ± 0.24. Turning to UUAAAGCAAUAUUACGAUAG, the “self-splicing fitness (ln)” value reads like this: (30 °C) -0.00915 ± 0.088; (37 °C) -0.00163 ± 0.12.

On to CACAAGCAAUAUUACGGUAA, for which the “self-splicing fitness (ln)” value (30 °C) is -2.26 ± 0.096 and the “self-splicing fitness (ln)” value (37 °C) was -2.21 ± 0.12. On the same counts, the results for UAUCAGCAAUAUUACGUCUC are -2.46 ± 0.24 and -1.13 ± 0.24. On the same counts, the results for UAACAGCAAUAUUACGCCAG are -2.03 ± 0.12 and -1.42 ± 0.18. The like results for GCUAAGCAAUAUUACGGGAA were, in that order, -1.56 ± 0.12 and -1.16 ± 0.12.

Consider ACCUAGCAAUAUUACGAGAC, for which the “self-splicing fitness (ln)” value is -3.14 ± 0.4 (30 °C) and -1.89 ± 0.24 (37 °C). As to CCUAAGCAAUAUUACGCCCA, the “self-splicing fitness (ln)” value was -3.67 ± 0.33 (30 °C) and -2.02 ± 0.33 (37 °C).

For AGUCAGCAAUAUUACGGUUU, the “self-splicing fitness (ln)” value is -0.329 ± 0.065 (30 °C) and -0.197 ± 0.08 (37 °C).

Consider GUUCAGCAAUAUUACGAACG, for which the “self-splicing fitness (ln)” value by setting is: (30 °C) -2.55 ± 0.35; (37 °C) -0.953 ± 0.23. For the sequence GACCAGCAAUAUUACGGCGA, the “self-splicing fitness (ln)” value is, setting by setting: (30 °C) -0.195 ± 0.075; (37 °C) 0.13 ± 0.11. Consider UCCUAGCAAUAUUACGAGAA, for which the “self-splicing fitness (ln)” value was -1.36 ± 0.25 (30 °C) and -0.965 ± 0.23 (37 °C). In the case of UUAUAGCAAUAUUACGUAUU, under “37 °C”, the “self-splicing fitness (ln)” value was -2.08 ± 0.25.

As to CUACAGCAAUAUUACGCUAA, the “self-splicing fitness (ln)” value is -2.93 ± 0.28 (30 °C) and -2.29 ± 0.29 (37 °C). Consider AGCUAGCAAUAUUACGUCUG, for which the “self-splicing fitness (ln)” value is -1.88 ± 0.097 (30 °C) and -1.56 ± 0.13 (37 °C). On the same counts, the results for CUGGAGCAAUAUUACGCUUU are -3.02 ± 0.32 and -3.22 ± 0.47.

As to CCAGAGCAAUAUUACGUUGA, the “self-splicing fitness (ln)” value was -2.69 ± 0.22 (30 °C) and -3.35 ± 0.24 (37 °C).

As to UCCGAGCAAUAUUACGAUGA, the “self-splicing fitness (ln)” value is -0.4 ± 0.068 (30 °C) and -0.0382 ± 0.079 (37 °C). On to CAGUAGCAAUAUUACGUACG, for which the “self-splicing fitness (ln)” value by setting is: (30 °C) 0.212 ± 0.13; (37 °C) 0.0818 ± 0.15.

Take UGGUAGCAAUAUUACGCCUU: the “self-splicing fitness (ln)” value by setting is: (30 °C) -0.729 ± 0.15; (37 °C) 0.426 ± 0.18.
